Values belong to the binder of their own block, whether it stands above or below them.
Columns and labels:
human IL-1R1 = biological target: T1, human IL-1R1 (human, UniProt P14778 18-336, limits assumed); experiment: BLI (Fortebio Octet), antibody injected over antigen surface
T1 construct: also called IL-1RI
T1 sequence (looked up): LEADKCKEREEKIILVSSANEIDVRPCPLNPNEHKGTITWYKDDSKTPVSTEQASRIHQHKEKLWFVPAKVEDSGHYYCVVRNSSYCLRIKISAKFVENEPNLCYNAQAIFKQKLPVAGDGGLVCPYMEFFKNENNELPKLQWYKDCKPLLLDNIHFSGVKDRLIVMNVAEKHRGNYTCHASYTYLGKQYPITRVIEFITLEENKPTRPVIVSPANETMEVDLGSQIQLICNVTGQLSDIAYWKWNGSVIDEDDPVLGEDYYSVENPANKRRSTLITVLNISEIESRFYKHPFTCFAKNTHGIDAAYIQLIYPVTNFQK
Method: (§1) B) Molecular selectivity over mouse IL-36R and human IL-1R1 The mouse and chimeric anti-IL-36R antibodies were also injected over either a mouse IL-36R or a human IL-1R1 surface at a concentration of 100 nM. The binding signal to mouse IL-36R and to human IL-1R1 for these antibodies measured using the Fortebio Octet (Fortebio, Menlo Park, Calif.) is zero, which indicates these antibodies selectively bind to human IL-36R.

mouse IL-36R = biological target: T2, mouse IL-36R (mouse, UniProt Q9ERS7 22-338); experiment: as above
T2 sequence (looked up): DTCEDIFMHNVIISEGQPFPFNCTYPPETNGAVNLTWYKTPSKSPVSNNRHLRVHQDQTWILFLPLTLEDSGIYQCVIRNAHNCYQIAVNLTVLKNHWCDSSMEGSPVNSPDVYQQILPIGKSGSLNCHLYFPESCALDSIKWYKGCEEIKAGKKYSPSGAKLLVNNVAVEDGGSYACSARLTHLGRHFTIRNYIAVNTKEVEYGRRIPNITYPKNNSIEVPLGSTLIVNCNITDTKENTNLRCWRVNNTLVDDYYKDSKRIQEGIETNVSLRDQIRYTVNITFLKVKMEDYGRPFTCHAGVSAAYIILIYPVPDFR
Method: as §1

[1] = biological target: T3, recombinant human IL-36R (ECD) (human, UniProt Q9HB29 20-332); experiment: SPR (ProteOn), recombinant human IL-36R at 7 surface densities, global fit
T3 construct: range 20-332; also called IL-1RL2; IL-1Rrp2
T3 sequence (looked up): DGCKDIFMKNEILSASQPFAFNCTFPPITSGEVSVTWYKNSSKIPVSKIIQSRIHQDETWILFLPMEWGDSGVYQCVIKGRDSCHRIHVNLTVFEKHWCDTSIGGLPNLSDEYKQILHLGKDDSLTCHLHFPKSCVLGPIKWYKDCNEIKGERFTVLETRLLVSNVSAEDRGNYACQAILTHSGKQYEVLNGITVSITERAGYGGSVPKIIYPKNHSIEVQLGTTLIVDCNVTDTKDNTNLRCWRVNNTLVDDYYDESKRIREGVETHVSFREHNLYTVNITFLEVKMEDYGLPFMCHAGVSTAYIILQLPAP
Method: A) Kinetics and binding affinities of anti-IL-36R antibodies binding to recombinant human IL-36R were measured using the Proteon (Bio-Rad, Hercules, Calif.) using material generated from hybridoma following single column purification. […] The binding affinities of the mouse antibodies to human IL-36R run at 7 different surface densities (globally fit) is shown in Table 1. Binding of the chimeric anti-IL36R IgGs is equivalent to the respective mouse leads.

human IL-36R on cells [2] = biological target: T4, human IL-36R on cells (human, UniProt Q9HB29 20-575); experiment: cell-based or functional assay
T4 sequence (looked up): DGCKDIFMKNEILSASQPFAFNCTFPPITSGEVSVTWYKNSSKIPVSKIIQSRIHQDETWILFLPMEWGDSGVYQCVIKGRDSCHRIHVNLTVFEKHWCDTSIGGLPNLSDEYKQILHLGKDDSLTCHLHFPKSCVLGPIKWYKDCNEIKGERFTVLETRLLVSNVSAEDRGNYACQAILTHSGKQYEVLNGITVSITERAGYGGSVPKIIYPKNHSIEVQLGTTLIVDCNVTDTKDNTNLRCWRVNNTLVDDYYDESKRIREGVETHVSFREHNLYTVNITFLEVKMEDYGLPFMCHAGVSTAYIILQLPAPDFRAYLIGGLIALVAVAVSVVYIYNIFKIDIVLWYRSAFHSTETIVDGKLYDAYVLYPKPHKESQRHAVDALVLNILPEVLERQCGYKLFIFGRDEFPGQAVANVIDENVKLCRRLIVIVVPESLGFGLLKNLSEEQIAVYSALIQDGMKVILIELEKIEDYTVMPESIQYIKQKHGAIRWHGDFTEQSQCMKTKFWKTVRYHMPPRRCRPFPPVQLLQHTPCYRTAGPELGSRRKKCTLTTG

[3] = biological target: cynomolgus IL-36R on BaF/3 cells (cynomolgus, UniProt A0A2K5WSK9 20-558); experiment: cell-based or functional assay
Chain of cynomolgus IL-36R on BaF/3 cells (A0A2K5WSK9 entry or part of it): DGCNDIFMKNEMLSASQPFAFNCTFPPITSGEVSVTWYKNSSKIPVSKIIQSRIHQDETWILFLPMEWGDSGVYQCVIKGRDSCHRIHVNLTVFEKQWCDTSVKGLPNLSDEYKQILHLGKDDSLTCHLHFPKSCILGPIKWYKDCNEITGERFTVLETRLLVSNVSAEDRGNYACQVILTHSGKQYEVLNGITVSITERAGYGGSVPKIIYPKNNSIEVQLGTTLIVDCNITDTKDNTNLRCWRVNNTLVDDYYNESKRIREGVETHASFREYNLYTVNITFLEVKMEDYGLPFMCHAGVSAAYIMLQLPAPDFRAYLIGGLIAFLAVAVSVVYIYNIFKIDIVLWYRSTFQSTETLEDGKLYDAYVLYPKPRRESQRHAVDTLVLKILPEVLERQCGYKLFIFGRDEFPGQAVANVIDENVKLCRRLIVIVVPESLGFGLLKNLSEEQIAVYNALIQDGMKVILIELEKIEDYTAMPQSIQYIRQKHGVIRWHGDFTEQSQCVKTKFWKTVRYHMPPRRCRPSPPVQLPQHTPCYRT

human IL-36R on cells [4] = biological target: T4, human IL-36R on cells; experiment: cell-based or functional assay; remark: listed apart in the source
human IL-36R on cells [5] = biological target: T4, human IL-36R on cells; experiment: flow cytometry, HEK293 cells transfected with full-length human IL-36R
Method: HEK293 cells transfected with full-length human IL-36R or NCI/ADR-RES cells were passaged for 24 hours prior to staining. Cells were removed from flasks by rinsing with 10 ml of 5 mM EDTA in PBS, and then incubated at 37° C. for 10 min with an additional 10 ml of 5 mM EDTA and 2.5 ml of Accumax to declump/disperse cells. Antibodies were then diluted to specified concentrations in PBS+2% BSA, and cells incubated for 20 min at room temperature. Excess antibody was then washed by adding 200 μl of PBS and then centrifuged. Secondary reagent was then added at 50 μl per well and cells are incubated for 15 min at room temperature and then washed as above. Cells were resuspended in 200 μl PBS and analyzed by flow cytometry.

[6] = biological target: T3, recombinant human IL-36R (ECD); experiment: SPR (ProteOn), single IL-36R surface coat concentration
Method: A) Kinetics and binding affinities of anti-IL-36R antibodies binding to recombinant human IL-36R were measured using the Proteon (Bio-Rad, Hercules, Calif.) using material generated from hybridoma following single column purification. […] Binding of the chimeric anti-IL36R IgGs is equivalent to the respective mouse leads.

binding result (human IL-1R1): no binding (tested: 100 nM)
binding result (mouse IL-36R): no binding (tested: 100 nM)
Kd [1]: 0.063 nM
IC90, IL-8 release, human primary keratinocytes (NHK), trun-IL-36a (human IL-36R on cells [2]): 19.3 nM
IC90, IL-8 release, human primary keratinocytes (NHK), trun-IL-36b (human IL-36R on cells [2]): 34 nM
IC90, IL-8 release, human primary keratinocytes (NHK), trun-IL-36g (human IL-36R on cells [2]): 3.6 nM
IC90, pNFκB, human primary keratinocytes (NHK), trun-IL-36a (human IL-36R on cells [2]): 11.6 nM
IC90, pNFκB, human primary keratinocytes (NHK), trun-IL-36b (human IL-36R on cells [2]): 14.2 nM
IC90, pNFκB, human primary keratinocytes (NHK), trun-IL-36g (human IL-36R on cells [2]): 10.6 nM
IC90, pNFκB, BaF/3 cynomolgus IL-36R cells, trun-IL-36a [3]: 1 nM
IC90, pNFκB, BaF/3 cynomolgus IL-36R cells, trun-IL-36b [3]: 2.1 nM
IC90, pNFκB, BaF/3 cynomolgus IL-36R cells, trun-IL-36g [3]: 1.5 nM
IC90, GM-CSF release, NCI/ADR-RES cells, trun-IL-36a (human IL-36R on cells [4]): 7.1 nM
IC90, GM-CSF release, NCI/ADR-RES cells, trun-IL-36b (human IL-36R on cells [4]): 2 nM
IC90, GM-CSF release, NCI/ADR-RES cells, trun-IL-36g (human IL-36R on cells [4]): 1.7 nM
IC90, IL-6 release, NCI/ADR-RES cells, trun-IL-36a (human IL-36R on cells [4]): 14 nM
IC90, IL-6 release, NCI/ADR-RES cells, trun-IL-36b (human IL-36R on cells [4]): 5.8 nM
IC90, IL-6 release, NCI/ADR-RES cells, trun-IL-36g (human IL-36R on cells [4]): 1.3 nM
IC90, IL-8 release, NCI/ADR-RES cells, trun-IL-36a (human IL-36R on cells [4]): 4.7 nM
IC90, IL-8 release, NCI/ADR-RES cells, trun-IL-36b (human IL-36R on cells [4]): 1.1 nM
IC90, IL-8 release, NCI/ADR-RES cells, trun-IL-36g (human IL-36R on cells [4]): 1.4 nM
IC90, pNFκB, NCI/ADR-RES cells, trun-IL-36a (human IL-36R on cells [4]): 5.8 nM
IC90, pNFκB, NCI/ADR-RES cells, trun-IL-36b (human IL-36R on cells [4]): 6.8 nM
IC90, pNFκB, NCI/ADR-RES cells, trun-IL-36g (human IL-36R on cells [4]): 4.6 nM
EC50 (human IL-36R on cells [5]): 0.529 nM
Kd [6]: < 0.1 nM
B1: antibody 78C8 (antibody, V domains shown)
VH: QVQLKESGPVLVAPSQSLSITCTVSGFSLTKFGVHWIRQTPGKGLEWLGVIWAGGPTNYNSALMSRLTISKDISQSQVFLRIDSLQTDDTAMYYCAKQIYYSTLVDYWGQGTSVTVSS
VL: DVLLTQTPLSLPVSLGDQASISCRSSQNIVHSNGNTYLQWYLQKPGQSPKLLIYKVSNRFSGVPDRFSGSGSGTDFTLKISRVEAEDLGVYYCFQGSHVPFTFGAGTKLELK
notes: Mouse monoclonal from hybridoma; also called 78C8D1; Mouse 78C8

binding result (human IL-1R1): no binding (tested: 100 nM)
binding result (mouse IL-36R): no binding (tested: 100 nM)
Kd [1]: 0.016 nM
IC90, pNFκB, BaF/3 cynomolgus IL-36R cells, trun-IL-36a [3]: 0.6 nM
IC90, pNFκB, BaF/3 cynomolgus IL-36R cells, trun-IL-36b [3]: 0.9 nM
IC90, pNFκB, BaF/3 cynomolgus IL-36R cells, trun-IL-36g [3]: 1 nM
IC90, GM-CSF release, NCI/ADR-RES cells, trun-IL-36a (human IL-36R on cells [4]): 1.2 nM
IC90, GM-CSF release, NCI/ADR-RES cells, trun-IL-36b (human IL-36R on cells [4]): 1.2 nM
IC90, GM-CSF release, NCI/ADR-RES cells, trun-IL-36g (human IL-36R on cells [4]): 0.7 nM
IC90, IL-6 release, NCI/ADR-RES cells, trun-IL-36a (human IL-36R on cells [4]): 17 nM
IC90, IL-6 release, NCI/ADR-RES cells, trun-IL-36b (human IL-36R on cells [4]): 5.3 nM
IC90, IL-6 release, NCI/ADR-RES cells, trun-IL-36g (human IL-36R on cells [4]): 0.8 nM
IC90, IL-8 release, NCI/ADR-RES cells, trun-IL-36a (human IL-36R on cells [4]): 1.9 nM
IC90, IL-8 release, NCI/ADR-RES cells, trun-IL-36b (human IL-36R on cells [4]): 0.5 nM
IC90, IL-8 release, NCI/ADR-RES cells, trun-IL-36g (human IL-36R on cells [4]): 0.5 nM
IC90, pNFκB, NCI/ADR-RES cells, trun-IL-36a (human IL-36R on cells [4]): 2.7 nM
IC90, pNFκB, NCI/ADR-RES cells, trun-IL-36b (human IL-36R on cells [4]): 4.2 nM
IC90, pNFκB, NCI/ADR-RES cells, trun-IL-36g (human IL-36R on cells [4]): 2.2 nM
EC50 (human IL-36R on cells [5]): 0.28 nM
Kd [6]: < 0.1 nM
B2: antibody 81A1 (antibody, V domains shown)
VH: QVQLKESGPGLVAPSQSLFITCTVSGFSLSSYEINWVRQVPGKGLEWLGVIWTGITTNYNSALISRLSISKDNSKSLVFLKMNSLQTDDTAIYYCARGTGTGFYYAMDYWGQGTSVTVSS
VL: DIQMTQTTSSLSASLGDRVTISCRASQDIYKYLNWYQQKPDGTLKLLIYYTSGLHSGVPSRFSGSGSGTDFSLTISNLEPEDIATYFCQQDSKFPWTFGGDTKLEIK
notes: Mouse monoclonal from hybridoma; also called 81A1D1; Mouse 81A1
